One data set concerns GPR103. Conditions: cited from earlier work. From the text:
GPR103 is a Gi/o- and Gq-coupled GPCR expressed in the adrenal gland and various regions of the brain such as the hypothalamus, which plays a crucial role in the regulation of energy metabolism and appetite control. […] In this study, we focused on the structural analysis complexed with Gq. To facilitate expression and purification, we truncated the C-terminal residues after G366 of human GPR103. […] (Supplementary Fig. 1a–d and Supplementary Table 1). […] The heptapeptide is conserved from fish to mammals, except for S23 (Supplementary Fig. 6a), consistent with the fact that the S23 side chain poorly interacts with the receptor. The receptor residues interacting with the heptapeptide are highly conserved among the homologs (Supplementary Fig. 6b, c). Accordingly, this observed heptapeptide-TMD interaction plays a key role in evolutionarily conserved GPR103 activation.

For data set [1] the following is noted: cited from earlier work. From the text: GPR103 is a Gi/o- and Gq-coupled GPCR expressed in the adrenal gland and various regions of the brain such as the hypothalamus, which plays a crucial role in the regulation of energy metabolism and appetite control. QRFP and GPR103 are implicated in a variety of physiological functions ranging from the modulation of feeding behavior to the regulation of energy homeostasis, cardiovascular function, and bone formation. ... || In the current study, we have not only elucidated the architecture of the receptor but also shed light on the structure of QRFP itself, potentially paving the way for the modulation of QRFP-neurons (Q-neurons)[46]. […] The QRFP-induced hibernation-like state (QIH) provides an unusual model to study metabolic suppression for therapeutic purposes, as well as artificial hibernation. QIH through pharmacogenetics[47] or optogenetics[48] is achievable in murine models, ...

Data set [2] deals with GPR103 E297^6.59A (human) (UniProt Q96P65).
Chain of GPR103 E297^6.59A (human) (Q96P65 whole entry E297A): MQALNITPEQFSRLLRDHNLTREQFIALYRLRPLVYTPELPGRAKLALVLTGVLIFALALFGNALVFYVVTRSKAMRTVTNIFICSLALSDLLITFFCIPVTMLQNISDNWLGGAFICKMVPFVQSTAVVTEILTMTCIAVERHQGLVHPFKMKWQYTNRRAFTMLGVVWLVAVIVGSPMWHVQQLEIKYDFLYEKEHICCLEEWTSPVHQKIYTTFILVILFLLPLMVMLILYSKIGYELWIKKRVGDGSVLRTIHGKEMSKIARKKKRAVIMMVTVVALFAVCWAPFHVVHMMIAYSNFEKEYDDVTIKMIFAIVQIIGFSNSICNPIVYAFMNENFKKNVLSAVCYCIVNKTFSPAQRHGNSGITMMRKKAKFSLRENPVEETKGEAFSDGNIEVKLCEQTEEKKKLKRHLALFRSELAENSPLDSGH
In data set [3] the target is GPR103 E203^ECL2A (human) (UniProt Q96P65).
Chain of GPR103 E203^ECL2A (human) (Q96P65 whole entry E203A): as the sequence (Q96P65 whole entry E297A) above, with E203A, A297E counted along it
The target in data set [4] is GPR103 Q318^7.39A (human) (UniProt Q96P65).
Chain of GPR103 Q318^7.39A (human) (Q96P65 whole entry Q318A): as the sequence (Q96P65 whole entry E297A) above, with A297E, Q318A counted along it
Data set [5] deals with GPR103 Q125^3.32 mutant (human) (UniProt Q96P65).
Chain of GPR103 Q125^3.32 mutant (human) (Q96P65 whole entry, change not shown): as the sequence (Q96P65 whole entry E297A) above, with A297E counted along it
In data set [6] the target is GPR103 T102^2.61 mutant (human) (UniProt Q96P65).
Chain of GPR103 T102^2.61 mutant (human) (Q96P65 whole entry, change not shown): as the sequence (Q96P65 whole entry E297A) above, with A297E counted along it
The target of data set [7] is GPR103 alanine mutant of Y29^N-term (human) (UniProt Q96P65).
Chain of GPR103 alanine mutant of Y29^N-term (human) (Q96P65 other isoform, or with tags, fused parts or gaps mutant): as the sequence (Q96P65 whole entry E297A) above, with Y29A, A297E counted along it
For data set [8], the target named is GPR103 alanine mutant of F25^N-term (human) (UniProt Q96P65).
Chain of GPR103 alanine mutant of F25^N-term (human) (Q96P65 other isoform, or with tags, fused parts or gaps mutant): as the sequence (Q96P65 whole entry E297A) above, with F25A, A297E counted along it
Data set [9] concerns the target GPR103 alanine mutant of F11^N-term (human) (UniProt Q96P65).
In a further data set the target is GPR103 C98^2.57A (human) (UniProt Q96P65).
Chain of GPR103 C98^2.57A (human) (Q96P65 whole entry C98A): as the sequence (Q96P65 whole entry E297A) above, with C98A, A297E counted along it

Chain of GPR103 alanine mutant of F11^N-term (human) (Q96P65 other isoform, or with tags, fused parts or gaps mutant): as the sequence (Q96P65 whole entry E297A) above, with F11A, A297E counted along it

As for “EDEGSEATGFLPAAGEKTSGPLGNLAEELNGYSRKKGGFSFRF [QRFP43, pyroglutamylated RF-amide peptide, 43-amino acid RF-amide peptide with a pyroglutamylated N-terminus]”, the “activity for GPR103 (in words)” value with GPR103 (ref [5]–[7]) is “specific activity for GPR103”. Besides, in data set [1] (QRFP administration, ref [11]), the “food intake and fat mass (in words)” value is “increased food intake and fat mass”; the “glucose-induced insulin release (in words)” value is given as “reducing glucose-induced insulin release”; the “osteopenia and nociception (in words)” value was “may also cause osteopenia and facilitate nociception”. Also, in data set [1] (ref [5]–[7]), the “orexigenic activity (in words)” value is listed as “orexigenic activity”. Besides, the “hypothermia and metabolism (in words)” value in [1] (ref [46]) was “capable of inducing an extended state of hypothermia and reduced metabolism”.

Regarding “GGFSFRF [C-terminal heptapeptide, C-terminal heptapeptide of QRFP26 (GGFSFRF)]”, in the data set on GPR103 (ref [27],[28]), the “GPR103 activation (in words)” value is reported as “sufficient to activate GPR103” and the “affinity (in words)” value was “reduced affinity”.

“QRFP26 (from UniProt P83859 91-136) (peptide)”: the QRFP26-induced activation of GPR103, TGFα shedding assay (reduction of potency against wild type) in data set [2] is 10 fold; in data set [3], 3 fold; in [4], > 3 fold; in data set [5] it was > 3 fold; in [6], > 3 fold; in data set [7], 10 fold. The QRFP26-induced activation of GPR103, TGFα shedding assay (reduction of potency against wild type) was 10 fold in [8], 10 fold in data set [9] and 3 fold with GPR103 C98^2.57A (human).

The record behind these values is PMC11187126, “Structure and dynamics of the pyroglutamylated RF-amide peptide QRFP receptor GPR103” (Nature Communications, 2024).
